Substitutions are numbered along the chain they refer to.

The target of assay [1] is T1, human Claudin18.2 (Homo sapiens, UniProt P56856).
T1 construct: expressed in transfected cells
The assay is described as follows: Cell-based ELISA affinity of humanized antibodies on HEK293T-Claudin18.2 (human) cells. Particulars: HEK293T-Claudin18.2 cells. It is filed as binding. Here is the method: The affinity of the anti-human Claudin18.2 murine monoclonal antibodies was evaluated by cell-based ELISA. The experimental procedures were as follows: The day before the experiment, HEK293T-Claudin18.2 (human) cells were plated in a 96-well plate at 5×10^4 cells/well. On the day of the experiment, the supernatant was removed, the cells in each well were washed once with 300 μL of PBS, and 100 μL of 4% paraformaldehyde was added to each well for fixation at room temperature for 20 min. Paraformaldehyde was then removed, and the cells in each well were washed twice with 300 μL of PBS. 100 μL of 2% BSA (in PBS) was added to each well, and the mixture was blocked at 37° C. for 2 h. After removing the blocking solution, each antibody subjected to gradient dilution (diluted with 2% BSA (in PBS), starting at […], in a 3-fold gradient, for a total of 11 concentration points) was added to the plate at 100 μL/well, and the mixture was incubated at 37° C. for 2 h. The supernatant was removed, and the cells in each well were washed three times with 300 μL of PBST. 100 μL of an anti-mouse IgG HRP secondary antibody (Jackson, cat #115-035-003) in 2% BSA was added to each well, and the mixture was incubated at 37° C. for 1 h. The secondary antibody was then removed, and the cells in each well were washed five times with 300 μL of PBST, followed by the addition of 100 μL of a TMB substrate (Huzhou InnoReagents Co., Ltd.) per well for color development for 5-20 min. The reaction was stopped by adding 50 μL of 2 N HCl to each well, and OD450 nm values were read on a microplate reader (manufacturer: MD, model: SpectraMax). The values obtained were plotted by GraphPad Prism to calculate the EC50 value.
The affinity of the anti-human Claudin18.2 humanized monoclonal antibodies was determined by cell-based ELISA. The cell-based ELISA was conducted as described in Example I-3.
Background: ELISA stands for enzyme-linked immunosorbent assay.

The test system of assay [2] is HEK293T-Claudin18.2 (human) cells. As to the kind of experiment: CDC activity, guinea pig serum killing experiment. It is filed as cell-based. Particulars: 20% guinea pig serum, 5 h. The protocol: CDC activity of the anti-human Claudin18.2 humanized monoclonal antibodies was detected by a guinea pig serum killing experiment. The experimental procedures were as follows: HEK293T-Claudin18.2 (human) cells were digested, collected by centrifugation, plated at 50000 cells/well, and incubated overnight. The supernatant was discarded, and 100 μL of each test antibody subjected to gradient dilution with DMEM+20% guinea pig serum (Beijing Bersee, BM361Y) was added to each well. The mixture was incubated at 37° C. for 5 h, and 20 μL of a CCK8 reagent (Suzhou Rhino Bio, QDY-003-D) was added to each well. The mixture was allowed to react for 1-4 h, and readings were taken at 450 nm on a microplate reader.

The target in assay [3] is T1, human Claudin18.2. The assay is described as follows: Cell ELISA affinity before and after conjugation, L929-claudin 18.2 (human) cells. It is filed as binding. Particulars: FIG. 8A. The protocol: (§1) The cell binding affinity of the antibody before and after conjugation to the toxin was detected according to a method similar to that described in Example 2.2. L929-claudin 18.2 (human) or NUGC4 cells were digested with trypsin, collected by centrifugation, washed three times with pre-cooled PBS, resuspended, added to a 96-well plate at 5×10^4 cells/well, and incubated overnight. The cells were fixed with 4% paraformaldehyde and blocked with 2% BSA (in PBS) at 37° C. for 2 h. Each ADC drug or antibody subjected to gradient dilution was added, and the mixture was incubated at 37° C. for 2 h. […] A TMB substrate was added for color development, and after the reaction was stopped by 2 M HCl, OD450 nm values were read on a microplate reader.

The target of assay [4] is T1, human Claudin18.2. The assay is described as follows: Cell-based ELISA affinity on NUGC4 cells endogenously expressing human Claudin18.2. Format: binding. Particulars: for NUCG4 Maximum signal value: OD450.
Assay [5] has as its target T1, human Claudin18.2. As to the kind of experiment: Cell ELISA affinity before and after conjugation, NUGC4 cells. It is filed as binding. Particulars: FIG. 8B. The protocol: as §1
Assay [6] deals with T1, human Claudin18.2. As to the kind of experiment: Cell-based FACS affinity on HEK293T-Claudin18.2 (human) cells. Format: binding. Here is the method: The affinity of the anti-human Claudin18.2 humanized antibodies was detected by flow cytometry. The experimental procedures were as follows: The adherent cultured HEK293T-Claudin18.2 (human), NUGC4-Claudin18.2 (human) and NUGC4 cells were digested, collected by centrifugation, and washed three times with pre-cooled PBS. The cells were resuspended in 1% BSA (in PBS) and added to a 96-well pointed bottom plate at 3×10^5 cells/well, with a volume of 50 μL per well. Each test antibody was diluted with 1% BSA (in PBS) (starting at 100 μg/mL, diluted in a 3-fold gradient, for 10 concentration points). The test antibody subjected to gradient dilution was added to the cells at 50 μL/well, and the mixture was well mixed and incubated at 4° C. for 1 h. The cells were collected by centrifugation, washed three times with pre-cooled PBS, and resuspended in 50 μL of 1% BSA (in PBS). 1 μL of a fluorescent secondary antibody (Biolegend-410712) was added to each well, and the mixture was well mixed and incubated at 4° C. for 0.5 h. The cells were collected by centrifugation, washed three times with pre-cooled PBS, resuspended in 200 μL of PBS, and assayed on a machine.

Assay [7] relates to cynomolgus monkey Claudin18.2. The assay is described as follows: FACS species affinity on HEK293T-Claudin18.2 (cynomolgus monkey) cells. Format: binding. Particulars: cell-based FACS. The protocol: The affinity of the anti-human Claudin18.2 humanized monoclonal antibodies for Claudin18.2 of different species was determined by flow cytometry (FACS). The experimental procedures were as follows: HEK293T-Claudin18.2 (cynomolgus monkey) cells, HEK293T-Claudin18.2 (mouse) cells and HEK293T-Claudin18.2 (rat) cells were digested, collected by centrifugation, washed three times with pre-cooled PBS, resuspended in 1% BSA (in PBS), and added to a 96-well pointed bottom plate at 3×10^5 cells/well. Each antibody subjected to gradient dilution was added, and the mixture was incubated at 4° C. for 1 h. The cells were washed three times with pre-cooled PBS, and then 1 μL of a fluorescent secondary antibody (APC: Biolegend-410712) was added to each well. The mixture was incubated at 4° C. for 0.5 h, and the cells were washed three times with pre-cooled PBS, then resuspended, and assayed on a flow cytometer.

For assay [8], the target named is T1, human Claudin18.2. As to the kind of experiment: Cell-based ELISA affinity of humanized antibodies on L929-Claudin18.2 (human) cells. It is filed as binding. Particulars: L929-Claudin18.2 cells.

B1: 25C7A5-HZ1: humanized anti-Claudin18.2 antibody, VH SEQ ID NO: 1, VL SEQ ID NO: 2, human IgG1/Kappa constant regions (antibody, V domains shown)
VH: QVQLVQSGAEVKKPGSSVKVSCKASGYTFTNYWLHWVRQAPGQGLEWMGMMHPISGSSNYAQKFQGRATLTVDKSTSTAYMELSSLRSEDTAVYYCARGLLSAMDYWGQGTLVTVSS
VL: EIVLTQSPATLSLSPGERATLSCKASENVKTYVSWYQQKPGQSPRLLIYEASNRYTGVPARFSGSGSATDFTLTISSLEPEDFAVYFCGQTYSFPPTFGQGTKVEIK
modifications: human IgG1/kappa constant regions
As for B1, the “Affinity detected by cell-based ELISA (EC50, ng/mL) HEK293T-Claudin18.2” value with human Claudin18.2 [1] was 11.15 ng/mL. Moreover, the “CDC activity EC50” value in assay [2] came to 3.137 µg/mL. The “change in affinity for the cells before and after conjugation” value (shortened to “change in affinity”) with human Claudin18.2 [3] was “no significant changes in the affinity”. For the same molecule, in the assay with human Claudin18.2 [4], the “NUCG4 EC50” value was determined as 0.1012 µg/mL and the “NUCG4 Maximum signal value” is listed as 0.304. In addition, the “change in affinity” value in the assay with human Claudin18.2 [5] is reported as “no significant changes in the affinity”. In the assay with human Claudin18.2 [6], the “HEK293T-Claudin18.2 EC50” value was found to be 0.292 µg/mL and the “HEK293T-Claudin18.2 Maximum signal value” is on record as 113572. Further, in assay [7], the “HEK293T-Claudin18.2 (cynomolgus monkey) EC50” value amounted to 0.2398 µg/mL. In the assay with human Claudin18.2 [8], the “Affinity detected by cell-based ELISA (EC50, ng/mL) L929-Claudin18.2” value came to 13.41 ng/mL.

B2: 25C7A5-HZ2: humanized anti-Claudin18.2 antibody, VH SEQ ID NO: 3, VL SEQ ID NO: 2, human IgG1/Kappa constant regions (antibody, V domains shown)
VH: B1 VH with Q6E
VL: B1 VL
modifications: human IgG1/kappa constant regions
On to B2, for which, in the assay with human Claudin18.2 [1], the “Affinity detected by cell-based ELISA (EC50, ng/mL) HEK293T-Claudin18.2” value was 11.17 ± 2.19(N = 2) ng/mL. Besides, the “CDC activity EC50” value in assay [2] turned out to be 3.283 µg/mL. For the same molecule, the “change in affinity” value in the assay with human Claudin18.2 [3] was “no significant changes in the affinity”. Further, in the assay with human Claudin18.2 [4], the “NUCG4 EC50” value worked out at 0.1225 µg/mL and the “NUCG4 Maximum signal value” came to 0.313. Also, the “change in affinity” value with human Claudin18.2 [5] is given as “no significant changes in the affinity”. Besides, in the assay with human Claudin18.2 [6], the “HEK293T-Claudin18.2 EC50” value came out at 0.2928 µg/mL and the “HEK293T-Claudin18.2 Maximum signal value” was 119070. The “HEK293T-Claudin18.2 (cynomolgus monkey) EC50” value in assay [7] was 0.2133 µg/mL. The “Affinity detected by cell-based ELISA (EC50, ng/mL) L929-Claudin18.2” value in the assay with human Claudin18.2 [8] was 14.80 ± 3.1(N = 2) ng/mL.

Source of the values: patent publication US20260201030A1, “ANTIBODY, ANTIBODY-DRUG CONJUGATE THEREOF AND USE THEREOF” (EVOPOINT BIOSCIENCES CO., LTD., priority 2021, published 2026).
